1 molecule from paper PMC8203779, “Distinct mechanisms of the human mitoribosome recycling and antibiotic resistance” (Nature Communications, 2021) can be followed below.

For the assay, the target named is mitoribosomal protein uL12m (39S subunit, L10-L12 stalk) (human (endogenous in HEK293S GnTI), UniProt P52815 37-198). The experiment in a line: cryo-EM structure; model PoTC (150 nM 55S mitoribosomes + 50 uM puromycin, 10 min 37 °C) with 15 uM RRFmt (5 min 37 °C), then 5 uM EF-G2mt + 200 uM GMPPCP (5 s, 30 s, 2 min, 37 °C), HEPES polymix buffer pH 7.5; single-particle classes: Class I 55S•RRFmt, Class II 55S•RRFmt•EF-G2mt•GMPPCP, Class III 39S•RRFmt•EF-G2mt•GMPPCP. The following applies: both partners purified.

B1: human EF-G2mt (recycling-specific mitochondrial homolog of elongation factor G) (natural protein)
chain: MLTNLRIFAMSHQTIPSVYINNICCYKIRASLKRLKPHVPLGRNCSSLPGLIGNDIKSLHSIINPPIAKIRNIGIMAHIDAGKTTTTERILYYSGYTRSLGDVDDGDTVTDFMAQERERGITIQSAAVTFDWKGYRVNLIDTPGHVDFTLEVERCLRVLDGAVAVFDASAGVEAQTLTVWRQADKHNIPRICFLNKMDKTGASFKYAVESIREKLKAKPLLLQLPIGEAKTFKGVVDVVMKEKLLWNCNSNDGKDFERKPLLEMNDPELLKETTEARNALIEQVADLDDEFADLVLEEFSENFDLLPAEKLQTAIHRVTLAQTAVPVLCGSALKNKGIQPLLDAVTMYLPSPEERNYEFLQWYKDDLCALAFKVLHDKQRGPLVFMRIYSGTIKPQLAIHNINGNCTERISRLLLPFADQHVEIPSLTAGNIALTVGLKHTATGDTIVSSKSSALAAARRAEREGEKKHRQNNEAERLLLAGVEIPEPVFFCTIEPPSLSKQPDLEHALKCLQREDPSLKVRLDPDSGQTVLCGMGELHIEIIHDRIKREYGLETYLGPLQVAYRETILNSVRATDTLDRTLGDKRHLVTVEVEARPIETSSVMPVIEFEYAESINEGLLKVSQEAIENGIHSACLQGPLLGSPIQDVAITLHSLTIHPGTSTTMISACVSRCVQKALKKADKQVLEPLMNLEVTVARDYLSPVLADLAQRRGNIQEIQTRQDNKVVIGFVPLAEIMGYSTVLRTLTSGSATFALELSTYQAMNPQDQNTLLNRRSGLT
notes: mitochondrial elongation factor G2 (EF-G2mt), human, 87 kD; contact residues up to Leu778 are printed; Cloned into pGEX6.1; also called EF-G2mt-GMPPCP; source: Rossetta (pLysS + RARE) cells, purified (GSTrap HP, GST cleaved with 3C protease, HiTrap Q HP)
As to B1, the binding result is on record as “binds”.
